From the supplement of paper PMC9170038

Test system: MS2 coat protein
Experiment: apparent KD of MS2 coat protein; designed switch direction (-1 OFF switch, 1 ON switch): -1; higher = weaker reporter binding
In short: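 Three titration conditions were used: no input, 200 uM small-molecule ligand, and an oligonucleotide input. In each, SNAP-549-labelled MS2 coat protein was raised from 0.7 or 1.5 nM, doubling, to 3 µM over designed RNA switches transcribed on Illumina chips by stalled E. coli RNA polymerase. Curve fits of normalised cluster fluorescence gave values whose per-design median over clusters is the apparent KD.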

[1] = Eterna round: R95, input ligand: microRNA oligo, concentration not stated
[2] = input ligand: microRNA oligo, concentration not stated
[3] = Eterna round: R95, input ligand: FMN 200 uM
[4] = Eterna round: R95, input ligand: none

Sequence	apparent KD of MS2 coat protein [1] [nM]	apparent KD of MS2 coat protein (input ligand: FMN 200 uM) [nM]	apparent KD of MS2 coat protein [2] [nM]	apparent KD of MS2 coat protein (input ligand: none) [nM]	apparent KD of MS2 coat protein [3] [nM]	apparent KD of MS2 coat protein [4] [nM]
UCGGCGCGAGGAUAUACGUUUGCGCGUUUUCGUUUUCGCGUACAUGAGGAUCACCCAUGUAGAAGGCGCGCCGC [Apr-15 SS2-15] (puzzle: Exclusion 2)	14					
UCGGCGCGAGGAUAUACGUUUGCUCUUUUUCGUUUUUGUGUACAUGAGGAUCACCCAUGUAGAAGGCGCGCCGC [Apr-15 SS2-19] (Eterna round: R96, puzzle: Exclusion 2)		80.9	17.3	31.5		
UCGGCGCGAGGAUAUACGUUUGCUCUUUUUCGUUUUUGUGUACAUGAGGAUCACCCAUGUAGAAGGCGCGCCGC [Apr-15 SS2-19] (puzzle: Exclusion 2)	17					
UCGGCGCGAGGAUAUACGUUUGCUUUUUUGGGUCGUUGCGUACAUGAGGAUCACCCAUGUAGAAGGCGCGCCGC [Apr-15 SS2-25] (Eterna round: R96, puzzle: Exclusion 2)		145	25.9	31.8		
UCGGCGCGAGGAUAUACGUUUGCUUUUUUGGGUCGUUGCGUACAUGAGGAUCACCCAUGUAGAAGGCGCGCCGC [Apr-15 SS2-25] (puzzle: Exclusion 2)	24.1					
UCGGCGCGAGGAUAUGCGGUUCCUCCCUAGGGCCGGAGCGUACAUGAGGAUCACCCAUGUAGAAGGCGCGCCGC [Apr-15 SS2-35] (puzzle: Exclusion 2)	11.2					
UCGGCGCGAGGAUAUGCGGUUGCUCCCUAGGGUCGGAGCGUACAUGAGGAUCACCCAUGUAGAAGGCGCGCCGC [Apr-15 SS2-34] (puzzle: Exclusion 2)	12.4					
UCGGCGCGAGGAUAUGCGGUUGCUUGGUAGGGUCGUGGCGUACAUGAGGAUCACCCAUGUAGAAGGCGCGCCGC [Apr-15 SS2-32*] (puzzle: Exclusion 2)	15.5					
UCGGCGUCAGGAUAUCCAAUAUAUGACAUGAGGAUCACCCAUGUUUCCACUCGUACCUCCGGAGAAGGGACGAAUU [Ex5 #92] (Eterna round: R97, puzzle: Exclusion 5)		33.5		32.1		
UCGGGAUGAGGAUAUACAUAGAAAUAGAUUCAUGUAAAACUACAUGAGGAUCACCCAUGUAGAAGGCAUUCCGU [Mat - Exclusion 2 - JL Mod - D58] (Eterna round: R97, puzzle: Exclusion 2)		110		24.2		
UCGUAGGAAGGAUAUGCAUGCUUUGAUAAAUCCAGGCCUGGACAUGAGGAUCACCCAUGUAGAAGGUCCACGGA [EX2 B.11] (Eterna round: R97, puzzle: Exclusion 2)		36.6		31.4		
UCGUAGUCAGGAUAUACAUGAGGAUCACCCAUGUAAAAUUUUAAUUUAAUUUUAAGGUGUAGAAGGGACCAGUU [Ex3 #22] (Eterna round: R97, puzzle: Exclusion 3)		43.4		51.8		
UCGUCGUCUGCGCCUGGACACAUGAGGAUCACCCAUGUCCCUAGCGGUUUACCGCUGUGACAAAACAAGCUGCUCGU [Eternabot (Original) Solution 25] (Eterna round: R97, puzzle: Sensor, turn-off variant 1)		145		185		
UCGUGGUUACUCUGCAGUUUCCUGAGCGGAGGCUCUUUGACAUGAGGAUCACCCAUGUUGCUUUUUGCUCAUCUUAA [JR_SV3TOV2_Sub041] (puzzle: Sensor v3, turn-off variant 2)	15.8				14.2	12.4
UCGUGUUUAGAGGAUAUAUUAAUAUUUUAAACAAUAGAAGGCUAAACAUGAGGAUCACCCAUGUAUUUGGUUUU [JR_Ex6_Sub055] (Eterna round: R97, puzzle: Exclusion 6)		46.6		233		
UCGUUCCGUGUAGGAUAUUGGCCUGCUCUGGGUCGAGAAGGACAUGAGGAUCACCCAUGUAUGUUAUUAUCACGCGUGGCGCAU [Design 81] (Eterna round: R96, puzzle: Exclusion NG 1)		61.7	22.9	31.8		
UCUAGACAUGAGGAUCACCCAUGUGAGGAUAUGAUGCGAUCGUCGAAAGACGAUAGCAUCAGAAGGCACAAAUG [Fiskers Ex 1 - 12] (Eterna round: R96, puzzle: Exclusion 1)		200	53.6	72.3		
UCUAGACAUGAGGAUCACCCAUGUGAGGAUAUGAUGCGAUCGUCGAAAGACGAUAGCAUCAGAAGGCACAAAUG [Fiskers Ex 1 - 12] (puzzle: Exclusion 1)	56.9				153	69.9
UCUAUGAUGCGAGGAUAUCGACCAUUCCUCUUUACAUGAGGAUCACCCAUGUUCGUACGCUACAACGAGAAGGCGCACUAAGAU [JR_ExcNG2_Sub059] (Eterna round: R96, puzzle: Exclusion NG 2)		438	101	194		
UCUCCCACUCGAGGAUAUCCAUAGAGCAACUGAGGAGAAGGCGAGUGUCCAAAACAUGAGGAUCACCCAUGUGACCUCCCGAAC [Eredgein] (Eterna round: R96, puzzle: Exclusion NG 1)		101	37.5	39.6		
UCUCCCGCUCGAGGAUAUCCAUAGAGCAACUGAGGAGAAGGCGAGCGUCCUAAACAUGAGGAUCACCCAUGUGACCUCCCGAAC [Zabiledila] (Eterna round: R96, puzzle: Exclusion NG 1)		55	41.2	39.1		
UCUCCCUGGCGAGGAUAUCCUGUGCGGUUCCGGCUCGUGUCUGUUACAUGAGGAUCACCCAUGUGGGAGAAGGUGCCUGUGGCU [Design 93] (Eterna round: R96, puzzle: Exclusion NG 2)		141	68	124		
UCUCGACAUGAGGAUCACCCAUGUCAGGAUAUUGUAUUGGAGGUGUUUAACCUUAUGGCAAGAAGGGAUGUGUG [LRO-Excl1-25] (puzzle: Exclusion 1)	22.9					
UCUCGCGGGCAAGGAUAUCCCACACUGUUCUGGCCCGUGUCUGUUACAUGAGGAUCACCCAUGUGGGAGAAGGUGCACCAGGGC [Design 44] (Eterna round: R96, puzzle: Exclusion NG 2)		78.8	31.6	35.9		
UCUCGCGGGCAAGGAUAUCCUACGUUGUUCUGGCCCGGGCAUGUUACAUGAGGAUCACCCAUGUGGGAGAAGGUGCGCCAGGGC [Design 36] (Eterna round: R96, puzzle: Exclusion NG 2)		36.8	28.2	36.7		
UCUCUGCGAGGAUAUACGUGCGCGCGCGCGCGCGCGCGCGUACAUGAGGAUCACCCAUGUAGAAGGCGCUCUGC [Apr-15 SS2-3] (puzzle: Exclusion 2)	19.4					
UCUGCCGCCGUGAGGAUAUGCCCGCGCAAACGCGGGCAGAAGGCACAUGAGGAUCACCCAUGUCCCGCGGUUUU [salish99_bmx4_r4_133] (Eterna round: R97, puzzle: Brourd's mod of Exclusion 4)		38.7		18.3		
